Patent US20230406921A1 (MABWELL SHANGHAI BIOSCIENCE, published 2023)
Numbering of substitutions follows the chain as printed.

B1: hz140-Hm13/hz182-Lm7 (antibody, V domains shown)
VH: EVQLVQSGAEVKKPGASVKVSCKASGYKFTNYVMSWVRQAPGQRLEWMGYINPYNDAIKYNEKFTGRVTITRDTSASTAYMELSSLRSEDTAVYYCAREGDFYANYGRLGFAYWGQGTLVTVSS
VL: DIQMTQSPSSLSASVGDRVTITCRASQDISNYLNWYQQKPGKAPKLLLYYTSRLHSGVPSRFSGSGSGTDYTLTISSLQPEDFATYFCQQGAGFPYTFGGGTKVEIKR
B2: hz140-Hm13/hz182-Lm1 (antibody, V domains shown)
VH: B1 VH
VL: B1 VL with L48I, F94R
notes: also called hz182-Lml
B3: hz140-Hm13/hz182-Lm2 (antibody, V domains shown)
VH: B1 VH
VL: B1 VL with L73F, F94R
B4: hz140-Hm13/hz182-Lm3 (antibody, V domains shown)
VH: B1 VH
VL: B1 VL with F83I, F94R
B5: hz140-Hm13/hz182-Lm4 (antibody, V domains shown)
VH: B1 VH
VL: B1 VL with S30T, F94R
B6: hz140-Hm13/hz182-Lm5 (antibody, V domains shown)
VH: B1 VH
VL: B1 VL with A92D, F94R
B7: hz140-Hm13/hz182-Lm6 (antibody, V domains shown)
VH: B1 VH
VL: B1 VL with G93T, F94R
B8: hz140-Hm13/hz182-Lm8 (antibody, V domains shown)
VH: B1 VH
VL: B1 VL with F94R, Y96R
notes: also called h182Lmut8
B9: hz140-Hm13/hz182-Lm9 (antibody, V domains shown)
VH: B1 VH
VL: B1 VL with A92D, G93T
B10: hz140-Hm13/hz182-Lm10 (antibody, V domains shown)
VH: B1 VH
VL: B1 VL with F83I
B11: hz140-Hm13/hz182-Lm11 (antibody, V domains shown)
VH: B1 VH
VL: B1 VL with F83I, A92D, G93T
B12: 140Hm9/hz140L (Table 2) (antibody, V domains shown)
VH: B1 VH with E1Q, S35H, D56E, A57G
VL: DIQMTQSPSSLSASVGDRVTITCRASQDITNYLNWYQQKPGKAPKLLIYYTSRLHSGVPSRFSGSGSGTDYTFTISSLQPEDIATYFCQQGDTFPRTFGGGTKVEIK
notes: also called hz140-Hm/hz140L
B13: 140Hm10/hz140L (Table 2) (antibody, V domains shown)
VH: B1 VH with E1Q
VL: B12 VL
notes: also called hz140-Hm/hz140L
B14: hz140-Hm13/hz182-L (antibody, V domains shown)
VH: B1 VH
VL: B12 VL with T30S, I48L, F73L, I83F, D92A, T93G, F94R, R96Y
B15: anti-human CD47/PD-L1 bispecific antibody 2MW1531-p (bispecific antibody)
heavy 1: EVQLVQSGAEVKKPGASVKVSCKASGYKFTNYVMSWVRQAPGQRLEWMGYINPYNDAIKYNEKFTGRVTITRDTSASTAYMELSSLRSEDTAVYYCAREGDFYANYGRLGFAYWGQGTLVTVSSASTKGPSVFPLAPCSRSTSESTAALGCLVKDYFPEPVTVSWNSGALTSGVHTFPAVLQSSGLYSLSSVVTVPSSSLGTQTYTCNVDHKPSNTKVDKRVESKYGPPCPPCPAPEFLGGPSVFLFPPKPKDTLMISRTPEVTCVVVDVSQEDPEVQFNWYVDGVEVHNAKTKPREEQYNSTYRVVSVLTVLHQDWLNGKEYKCKVSNKGLPSSIEKTISKAKGQPREPQVYTLPPSQKEMTKNQVSLTCLVKGFYPSDIAVEWESNGQPENNYKTTPPVLDSDGSFFLYSKLTVDKSRWQEGNVFSCSVMHEALHNRYTQKSLSLSLGK
heavy 2: EVQLVQSGAEVKKPGATVKISCKVSGFNIKDIYMHWVQQAPGKGLEWMGRIDPANANTKYDPKFQDRVTITADTSTNTAYMELSSLRSEDTAVYYCASGQLGPLGFDYWGQGTTVTVSSASTKGPSVFPLAPCSRSTSESTAALGCLVKDYFPEPVTVSWNSGALTSGVHTFPAVLQSSGLYSLSSVVTVPSSSLGTQTYTCNVDHKPSNTKVDKRVESKYGPPCPPCPAPEFLGGPSVFLFPPKPKDTLMISRTPEVTCVVVDVSQEDPEVQFNWYVDGVEVHNAKTKPREEQYNSTYRVVSVLTVLHQDWLNGKEYKCKVSNKGLPSSIEKTISKAKGQPREPQVYTLPPSQEEMTKNQVSLTCLVKGFYPSDIAVEWESNGQPENNYKTTPPVLDSDGSFFLYSKLTVDKSRWQEGNVFSCSVMHEALHNHYTQESLSLSLGK
VL: B12 VL with T30S, I48L, F73L, I83F, D92A, T93G, F94R, R96Y
notes: Knobs-into-holes: heavy chain A hz140-H-A (anti-CD47), heavy chain B hz182-H-B (anti-PD-L1), common light chain
B16: anti-human CD47/PD-L1 bispecific antibody 2MW1531-m7 (bispecific antibody, human IgG4 S228P, kappa)
heavy 1: B15 heavy 1
heavy 2: B15 heavy 2
VL: DIQMTQSPSSLSASVGDRVTITCRASQDISNYLNWYQQKPGKAPKLLLYYTSRLHSGVPSRFSGSGSGTDYTLTISSLQPEDFATYFCQQGAGFPYTFGGGTKVEIKRTVAAPSVFIFPPSDEQLKSGTASVVCLLNNFYPREAKVQWKVDNALQSGNSQESVTEQDSKDSTYSLSSTLTLSKADYEKHKVYACEVTHQGLSSPVTKSFNRGEC
notes: Knobs-into-holes with a common light chain
B17: h140Hm13/h140Lm8 (antibody, V domains shown)
VH: B1 VH
VL: B12 VL with F94R, R96Y
notes: also called h140Lmut8; mut8
B18: h140Hm13/h140Lm10 (antibody, V domains shown)
VH: B1 VH
VL: B12 VL with D92A, T93G, F94R, R96Y
notes: also called h140Lmut10; mut10
B19: h140Hm13/h140Lm11 (antibody, V domains shown)
VH: B1 VH
VL: B12 VL with H55S, F94R, R96Y
B20: h140Hm13/h140Lm12 (antibody, V domains shown)
VH: B1 VH
VL: B12 VL with H55Q, F94R, R96Y
B21: h140Hm13/h140Lm13 (antibody, V domains shown)
VH: B1 VH
VL: B12 VL with R96Y
B22: h140Hm13/h140Lm14 (antibody, V domains shown)
VH: B1 VH
VL: B12 VL with H55Q, F94Y, R96Y
B23: h140Hm13/h140Lm15 (antibody, V domains shown)
VH: B1 VH
VL: B12 VL with H55Q, F94K, R96Y
B24: h140Hm13/h140Lm16 (antibody, V domains shown)
VH: B1 VH
VL: B12 VL with H55Q, F94S, R96Y
B25: h140Hm13/h140Lm17 (antibody, V domains shown)
VH: B1 VH
VL: B12 VL with H55Q, F94E, R96Y
B26: h140Hm13/h140Lm18 (antibody, V domains shown)
VH: B1 VH
VL: B12 VL with H55Q, F94N, R96Y

How the values were obtained:
[1] = biological target: T1, CD47 on the surface of human red blood cells (human, UniProt Q08722 19-323); assay: FACS, RBC, 200 nM
T1 construct: whole, on cells; Same protein as m3, on red blood cells; also called hRBC; RBC
Experimental: (§1) The difference between the binding of the mutant to CD47 on the surface of tumor cells and CD47 on the surface of red blood cells was evaluated.

[2] = biological target: T2, recombinant antigen of the extracellular region of CD47 (Sino Biological, Cat: 12283-H08H) (human, UniProt Q08722 19-139); assay: Fortebio BLI, recombinant CD47
T2 construct: extracellular domain; also called recombinant CD47 extracellular region; CD47 recombinant protein

[3] = biological target: T3, CD47 on the surface of tumor cells (human, UniProt Q08722 19-323); assay: FACS, tumor cells, 2 nM
T3 construct: whole, on cells; Same protein as m4; also called CD47 antigen on the surface of U937 and CCRF cells; SKOV-3
Experimental: as §1

[4] = biological target: T2, recombinant antigen of the …; assay: Fortebio BLI, recombinant CD47 extracellular region
[5] = biological target: T2, recombinant antigen of the …; assay: Fortebio BLI, antibody on AHC sensor, CD47 extracellular region 100 nM;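 note: antibody held on the sensor through anti-human Fc capture, CD47 antigen in solution, association and dissociation phases each lasting 300 s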
Experimental: The affinity between the obtained mutant antibody and the CD47 recombinant protein was determined by Fortebio. The antibody was immobilized on the surface of a sensor with the anti-human Fc capture antibody (AHC Sensor), and reacted with the recombinant antigen of the extracellular region of CD47 (with a working concentration of 100 nM) in the liquid phase. The duration for binding and dissociation was both 300 seconds. The kinetic parameters were determined.

[6] = biological target: T3, CD47 on the surface of tumor cells; assay: FACS, SKOV-3 tumor cells (no PD-L1), antibody 100 nM
Experimental: In the experiment of analyzing the binding to human red blood cells, the antibody was used at a concentration of 1000 nM; and in the experiment of analyzing the binding to tumor cells, the antibody was used at a concentration of 100 nM.

[7] = biological target: T2, recombinant antigen of the …; assay: Fortebio BLI
PD-L1 = PD-L1 (human, UniProt Q9NZQ7 19-239, limits assumed); assay: Fortebio BLI
[8] = biological target: T3, CD47 on the surface of tumor cells; assay: FACS, tumor cells, 1 nM
Experimental: as §1

Sequence of PD-L1 (Q9NZQ7 19-239 limits assumed): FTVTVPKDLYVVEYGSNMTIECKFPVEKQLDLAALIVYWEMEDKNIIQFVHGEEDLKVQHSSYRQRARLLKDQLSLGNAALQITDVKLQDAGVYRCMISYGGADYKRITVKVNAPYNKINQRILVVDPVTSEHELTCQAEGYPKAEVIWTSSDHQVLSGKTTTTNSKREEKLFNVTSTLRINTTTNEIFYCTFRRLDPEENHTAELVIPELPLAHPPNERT

Row | Binder | FACS (MFI) [1] | Kd [2] | kon [2] | FACS (MFI) [3] | FACS (MFI) [8] | also measured
1 | B1 | 349 MFI | 16.6 nM | 201000 M⁻¹ s⁻¹ | 17800 MFI |  | 
2 | B2 | 2320 MFI | 7.06 nM | 134000 M⁻¹ s⁻¹ | 15500 MFI |  | 
3 | B3 | 1670 MFI | 1410 nM | 94700 M⁻¹ s⁻¹ | 30400 MFI |  | 
4 | B4 | 874 MFI | 16.7 nM | 145000 M⁻¹ s⁻¹ | 30000 MFI |  | 
5 | B5 | 1840 MFI | 989 nM | 87900 M⁻¹ s⁻¹ | 28500 MFI |  | 
6 | B6 | 3310 MFI | 667 nM | 79900 M⁻¹ s⁻¹ | 39900 MFI |  | 
7 | B7 | 695 MFI | 12.5 nM | 114000 M⁻¹ s⁻¹ | 15900 MFI |  | 
8 | B8 | 40800 MFI | 12.9 nM | 234000 M⁻¹ s⁻¹ | 39100 MFI |  | 
9 | B9 | 1750 MFI | 38.9 nM | 132000 M⁻¹ s⁻¹ | 16400 MFI |  | 
10 | B10 | 326 MFI | 5.14 nM | 176000 M⁻¹ s⁻¹ | 19000 MFI |  | 
11 | B11 | 321 MFI | 53.1 nM | 103000 M⁻¹ s⁻¹ | 20100 MFI |  | 
12 | B12 |  |  |  |  |  | Kd [4]: 3.92 nM; koff [4]: 0.000847 s⁻¹; kon [4]: 216000 M⁻¹ s⁻¹
13 | B13 |  |  |  |  |  | Kd [4]: 7.83 nM; koff [4]: 0.00202 s⁻¹; kon [4]: 258000 M⁻¹ s⁻¹
14 | B14 | 2060 MFI | 5.97 nM | 125000 M⁻¹ s⁻¹ | 25800 MFI |  | Kd [5]: 6.2 nM; koff [5]: 0.00163 s⁻¹; kon [5]: 263000 M⁻¹ s⁻¹
15 | B15 |  |  |  |  |  | Binding to tumor cells (MFI) [6]: 35400 MFI; Kd [7]: 8.56 nM; koff [7]: 0.00131 s⁻¹; kon [7]: 153000 M⁻¹ s⁻¹; Kd (PD-L1): 0.474 nM; koff (PD-L1): 0.000147 s⁻¹; kon (PD-L1): 310000 M⁻¹ s⁻¹
16 | B16 |  |  |  |  |  | Binding to tumor cells (MFI) [6]: 28200 MFI; Kd [7]: 62.1 nM; koff [7]: 0.00814 s⁻¹; kon [7]: 131000 M⁻¹ s⁻¹; Kd (PD-L1): 0.917 nM; koff (PD-L1): 0.00021 s⁻¹; kon (PD-L1): 230000 M⁻¹ s⁻¹
17 | B17 |  |  |  |  | 26400 MFI | 
18 | B18 |  |  |  |  | 40900 MFI | 
19 | B19 |  |  |  |  | 19400 MFI | 
20 | B20 |  |  |  |  | 26400 MFI | 
21 | B21 |  |  |  |  | 10300 MFI | 
22 | B22 |  |  |  |  | 7520 MFI | 
23 | B23 |  |  |  |  | 15700 MFI | 
24 | B24 |  |  |  |  | 12200 MFI | 
25 | B25 |  |  |  |  | 11200 MFI | 
26 | B26 |  |  |  |  | 9920 MFI | 
